Data from IntAct's records for PubMed 21102411.

B1: Peroxisomal biogenesis factor 19 (Homo sapiens), P40855 (parent)
chain: MAAAEEGCSVGAEADRELEELLESALDDFDKAKPSPAPPSTTTAPDASGPQKRSPGDTAKDALFASQEKFFQELFDSELASQATAEFEKAMKELAEEEPHLVEQFQKLSEAAGRVGSDMTSQQEFTSCLKETLSGLAKNATDLQNSSMSEEELTKAMEGLGMDEGDGEGNILPIMQSIMQNLLSKDVLYPSLKEITEKYPEWLQSHRESLPPEQFEKYQEQHSVMCKICEQFEAETPTDSETTQKARFEMVLDLMQQLQDLGHPPKELAGEMPPGLNFDLDALNLSGPPGASGEQCLIM
partner: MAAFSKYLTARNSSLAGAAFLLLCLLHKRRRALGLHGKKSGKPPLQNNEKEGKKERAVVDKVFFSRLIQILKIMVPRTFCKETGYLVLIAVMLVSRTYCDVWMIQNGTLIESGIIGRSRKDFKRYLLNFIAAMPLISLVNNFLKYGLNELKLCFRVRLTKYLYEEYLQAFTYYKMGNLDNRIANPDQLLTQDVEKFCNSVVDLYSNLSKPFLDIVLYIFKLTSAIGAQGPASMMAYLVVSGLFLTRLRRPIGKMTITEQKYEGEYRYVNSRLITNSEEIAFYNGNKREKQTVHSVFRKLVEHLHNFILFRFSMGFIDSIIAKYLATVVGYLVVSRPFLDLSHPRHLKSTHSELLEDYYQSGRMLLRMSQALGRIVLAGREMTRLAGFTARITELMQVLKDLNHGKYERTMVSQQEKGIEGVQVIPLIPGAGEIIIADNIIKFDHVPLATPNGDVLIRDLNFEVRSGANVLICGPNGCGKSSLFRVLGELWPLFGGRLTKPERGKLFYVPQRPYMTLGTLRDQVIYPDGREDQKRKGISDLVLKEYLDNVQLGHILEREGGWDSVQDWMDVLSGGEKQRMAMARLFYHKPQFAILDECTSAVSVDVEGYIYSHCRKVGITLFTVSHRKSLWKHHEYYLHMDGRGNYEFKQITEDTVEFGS
B2: Peroxisomal biogenesis factor 19 (Homo sapiens), P40855 (parent)
chain: B1 chain
partner: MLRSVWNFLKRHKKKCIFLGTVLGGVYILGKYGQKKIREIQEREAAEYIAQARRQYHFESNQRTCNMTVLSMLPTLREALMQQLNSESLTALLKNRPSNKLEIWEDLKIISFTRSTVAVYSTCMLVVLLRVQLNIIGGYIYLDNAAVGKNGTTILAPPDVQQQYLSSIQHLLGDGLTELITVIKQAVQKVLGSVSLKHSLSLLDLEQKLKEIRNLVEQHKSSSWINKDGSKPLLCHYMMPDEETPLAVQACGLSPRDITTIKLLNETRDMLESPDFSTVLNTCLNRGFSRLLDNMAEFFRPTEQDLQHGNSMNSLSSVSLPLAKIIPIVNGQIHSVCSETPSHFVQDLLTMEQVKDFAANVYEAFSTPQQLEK

Variants of: B1
Settings: with abcd3_human ABCD3, P28288

Variant | effect of a mutation on the interaction
L22A | disrupting interaction

Variants of: B1
Settings: with abcd3_human ABCD3, P28288
Remark: another data set of the same source

Variant | effect of a mutation on the interaction
F29A | disrupting interaction

Variants of: B2
Settings: with pex3_human PEX3, P56589

Variant | effect of a mutation on the interaction
L22A | disrupting interaction

Variants of: B2
Settings: with pex3_human PEX3, P56589
Remark: another data set of the same source

Variant | effect of a mutation on the interaction
L18A | disrupting interaction

Variants of: B2
Settings: with pex3_human PEX3, P56589
Remark: another data set of the same source

Variant | effect of a mutation on the interaction
L18A | decreasing interaction

Variants of: B2
Settings: with pex3_human PEX3, P56589
Remark: another data set of the same source

Variant | effect of a mutation on the interaction
D28A | decreasing interaction

Variants of: B2
Settings: with pex3_human PEX3, P56589
Remark: another data set of the same source

Variant | effect of a mutation on the interaction
L26A | decreasing interaction

Variants of: B2
Settings: with pex3_human PEX3, P56589
Remark: another data set of the same source

Variant | effect of a mutation on the interaction
L21A | disrupting interaction

Variants of: B2
Settings: with pex3_human PEX3, P56589
Remark: another data set of the same source

Variant | effect of a mutation on the interaction
L21A | decreasing interaction

Variants of: B2
Settings: with pex3_human PEX3, P56589
Remark: another data set of the same source

Variant | effect of a mutation on the interaction
F29A | disrupting interaction
